Test results: publication PMC4869717 (ACS chemical biology, 2015)
Numbering of substitutions follows the chain as printed. Names may count otherwise.

What was measured:
AUC = target: the molecule itself; assay: AUC
[1] = target: the molecule itself; assay: thioflavin T fluorescence

B1: emerin fragment from amino acid 1 to amino acid 187 (EmN), wild type, His-tagged (domain or fragment, human, UniProt P50402 1-187, looked up)
chain: MDNYADLSDTELTTLLRRYNIPHGPVVGSTRRLYEKKIFEYETQRRRLSPPSSSAASSYSFSDLNSTRGDADMYDLPKKEDALLYQSKGYNDDYYEESYFTTRTYGEPESAGPSRAVRQSVTSFPDADAFHHQVHDDDLLSSSEEECKDRERPMYGRDSAYQSITHYRPVSASRSSLDLSYYPTSSS
stoichiometry N (AUC): 2

B2: EmN variant S54F (domain or fragment, human, UniProt P50402 1-187, looked up)
chain: B1 chain with S54F
binding result [1]: binds

B3: EmN variant P183H (domain or fragment, human, UniProt P50402 1-187, looked up)
chain: B1 chain with P183H
binding result [1]: binds

B4: emerin fragment from amino acid 1 to amino acid 187 (EmN), wild type, His-tag cleaved (domain or fragment, human, UniProt P50402 1-187, looked up)
chain: B1 chain
fold increase in ThT fluorescence intensity at 480 nm [1]: 10 fold

B5: EmN variant Q133H (domain or fragment, human, UniProt P50402 1-187, looked up)
chain: B1 chain with Q133H
binding result [1]: binds

B6: EmN variant P183T (domain or fragment, human, UniProt P50402 1-187, looked up)
chain: B1 chain with P183T
binding result [1]: binds
